Results as given in patent publication US20260231954A1, “PESTICIDAL ENZYMES FOR USE ON NEMATODES, INSECTS, AND MOLLUSKS” (priority 2023, published 2026).

Experiments:
Type in all cases: in vivo
winter wheat [1] = assay: Field trial: esterase on MAP fertilizer, winter wheat yield and vigor; details: 1 fl oz/A EstA fermentation on MAP (15 lb/A Phosphate); MAP base control 4124.5
Protocol: (§1) Esterase A (EstA) from Bacillus subtilis (SEQ ID NO:254) was produced via fermentation of a recombinantly produced enzyme in Bacillus subtilis. 1 fl oz of fermentation product was applied onto 15 lb P/A (phosphate equivalent per acre) monoammonium phosphate (MAP) fertilizer in a concrete mixer and allowed to mix for 1 minute. A MAP control treatment without fermentation media was also created. MAP, alone or with fermentation media was distributed across 4 small replicated plots prior to planting of winter wheat with 5 replicates of 300 ft^2 each at each site.

corn [2] = assay: Field trial: esterase on MAP/DAP fertilizer, corn yield; details: 2 fl oz/A EstA fermentation on MAP/DAP (72 lb/A Phosphate); base control 12798
Protocol: Esterase A (EstA) from Bacillus subtilis (SEQ ID NO:254) was produced via fermentation of a recombinantly produced enzyme in Bacillus subtilis. 2 fl oz of fermentation product was applied onto either 72 lb P/A (phosphate equivalent per acre) monoammonium phosphate (MAP) fertilizer or diammonium phosphate (DAP) fertilizer in a concrete mixer, and allowed to mix for 1 minute. A MAP/DAP control treatment without fermentation media was also created. MAP or DAP, alone or with fermentation media was distributed across 4 small replicated plots each prior to planting of corn with 5 replicates of 400 ft2 each at each site (4 site with MAP, 4 sites with DAP, combined in data in Table 52 below).

winter wheat [3] = assay: Field trial: esterase on urea fertilizer, winter wheat yield; details: 1 fl oz or 2 fl oz fermentation product on 15 lb N/A urea
Protocol: as §1, with “oz or 2 fl oz” for “oz”, “N/A (nitrogen” for “P/A (phosphate”, “urea” for “monoammonium phosphate (MAP)”, “urea” for “MAP”, “urea,” for “MAP,”

corn [4] = assay: Field trial: esterase on DAP fertilizer, corn yield; details: 1, 2, or 3 fl oz fermentation product on 67.5 lb P/A DAP
Protocol: (§2) Esterase A (EstA) from Bacillus subtilis (SEQ ID NO:254) was produced via fermentation of a recombinantly produced enzyme in Bacillus subtilis. 1, 2, or 3 fl oz of fermentation product was applied onto 67.5 lb P/A (phosphate equivalent per acre) diammonium phosphate (DAP) fertilizer in a concrete mixer, and allowed to mix for 1 minute. A DAP control treatment without fermentation media was also created. DAP, alone or with fermentation media was distributed across 4 small replicated plots each prior to planting of corn with 4 replicates of 400 ft^2 each at each site.

corn [5] = assay: Field trial: esterase on urea with or without NBPT nitrogen stabilizer, corn yield; details: 1, 2, or 3 fl oz fermentation product on 135 lb N/A urea, with or without 64 fl oz/ton NBPT
Protocol: as §2, with “135” for “67.5”, “N/A (nitrogen” for “P/A (phosphate”, “urea” for “diammonium phosphate (DAP)”, “urea” for “DAP”, “An addition treatment that contained 64 fl oz/ton N-Butyl-thiophosphoric triamide (NBPT) nitrogen stabilizer or 64 fl oz/ton NBPT nitrogen stabilizer with 3 fl oz/A EstA fermentation product was also included in the trial. Urea,” for “DAP,”, “ft2” for “ft^2”

corn [6] = assay: Field trial: EstA Esterase corn seed treatment, yield; details: 2.5 fl oz/unit on hybrid corn seed; 16 sites
Source text: 2.5 fl oz/unit of EstA Esterase from recombinant Bacillus subtilis fermentation (SEQ ID NO: 254) was coated onto hybrid corn seeds treated with Fludioxinil, Azoxystrobin, mefonoxam, and thiabendaz fungicides, cyantraniliproleinsecticide, peridium 1006 polymer, and (colorant). A control treatment without esterase enzyme was also created. The seed treated with esterase and control seed was planted in replicated trials distributed across 16 replicated plots with 4 replicates of 80 ft2 each at each site.

B1: EstA fermentation: Esterase A (EstA) from Bacillus subtilis (SEQ ID NO:254), fermentation product of recombinant Bacillus subtilis (protein, listed as Bacillus subtilis)
chain: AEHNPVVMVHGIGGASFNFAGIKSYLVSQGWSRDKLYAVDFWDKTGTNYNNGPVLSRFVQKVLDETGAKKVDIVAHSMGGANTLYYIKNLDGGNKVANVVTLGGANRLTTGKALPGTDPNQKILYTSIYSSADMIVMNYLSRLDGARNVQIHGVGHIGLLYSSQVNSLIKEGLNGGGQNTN
With B1 the “Yield (Kg/ha)” value (winter wheat [1]) was 4224.7 Kg/ha, the “Yield (Kg/ha)” value (corn [2]) was 13077 Kg/ha and the “yield vs urea control (in words)” value (winter wheat [3]) was “increased the yield”. For the same molecule, the “yield vs DAP control (in words)” value (corn [4]) was “increased the yield”, the “yield vs urea control and NBPT containing treatments (in words)” value (corn [5]) was “increased the yield” and the “yield vs base seed treatment package (in words)” value (corn [6]) was “increased the yield”.
